Measured values taken from publication PMC5758890.

How the values were obtained:
[1] = biological target: T. thermophilus RNAP core enzyme (T. thermophilus) (UniProt Q5SHR6); experiment: SPR
[2] = biological target: T. thermophilus RNAP σ^A holoenzyme (T. thermophilus HB8) (UniProt Q5SHR6); experiment: SPR

Thermus thermophilus bacteriophage P23–45 gp76 (natural protein)
Kd [1]: 8.4 µM | Kd [2]: 0.12 µM
